Laboratory results as given in the supplement of paper PMC10567573.

B1: SCARA5 (parent)
chain: VTEDLRLKDWEHSIALRNISLAKG

Variants of: B1
Experiment: protein stability index of a GFP-peptide fusion (GPS, HEK-293T) (PSI 1-6); higher = more stable
Conditions: c terminus: a fixed tail appended
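Also: lentivirally expressed fusions sorted by FACS into six bins by GFP to DsRed ratio, PSI derived from sequencing read proportions per bin multiplied by bin number.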

Row | Variant | protein stability index
1 | VTEDLRLKDWEHSIELRNISLAKG | 3.14
2 | VTEDLRLKDWEHSIQLRNISLAKG | 3.59
3 | VTEDLRLKDWEHSIILRNISLAKG | 2.59
4 | VTEDLRLKDWEHSICLRNISLAKG | 3.13
5 | VTEDLRLKDWEHSIVLRNISLAKG | 2.34
6 | VTEDLRLKDWEHSIYLRNISLAKG | 2.39
7 | VTEDLRLKDWEHSIMLRNISLAKG | 3.27
8 | VTEDLRLKDWEHSIWLRNISLAKG | 2.46
9 | VTEDLRLKDWEHSIPLRNISLAKG | 3.54
10 | VTEDLRLKDWEHSIGLRNISLAKG | 3.58
11 | VTEDLRLKDWEHSIHLRNISLAKG | 3.37
12 | VTEDLRLKDWEHSITLRNISLAKG | 3.64
13 | VTEDLRLKDWEHSIRLRNISLAKG | 2.74
14 | VTEDLRLKDWEHSISLRNISLAKG | 3.66
15 | VTEDLRLKDWEHSIFLRNISLAKG | 2.86
16 | VTEDLRLKDWEHSIKLRNISLAKG | 2.98
17 | VTEDLRLKDWEHSIDLRNISLAKG | 4.2
18 | VTEDLRLKDWEHSILLRNISLAKG | 2.63
19 | VTEDLRLKDWEHSINLRNISLAKG | 3.42
20 | VTEDLRLVDWEHSIALRNISLAKG | 2.82
21 | VTEDLRLYDWEHSIALRNISLAKG | 2.83
22 | VTEDLRLFDWEHSIALRNISLAKG | 2.85
23 | VTEDLRLGDWEHSIALRNISLAKG | 3.18
24 | VTEDLRLMDWEHSIALRNISLAKG | 2.77

Row | Variant | protein stability index
25 | VTEDLRLTDWEHSIALRNISLAKG | 3.27
26 | VTEDLRLRDWEHSIALRNISLAKG | 3.11
27 | VTEDLRLEDWEHSIALRNISLAKG | 3.49
28 | VTEDLRLIDWEHSIALRNISLAKG | 2.87
29 | VTEDLRLLDWEHSIALRNISLAKG | 3.04
30 | VTEDLRLPDWEHSIALRNISLAKG | 3.48
31 | VTEDLRLSDWEHSIALRNISLAKG | 3.28
32 | VTEDLRLHDWEHSIALRNISLAKG | 3.44
33 | VTEDLRLWDWEHSIALRNISLAKG | 2.57
34 | VTEDLRLNDWEHSIALRNISLAKG | 3.48
35 | VTEDLRLQDWEHSIALRNISLAKG | 2.91
36 | VTEDLRLKTWEHSIALRNISLAKG | 3.18
37 | VTEDLRLKCWEHSIALRNISLAKG | 3.09
38 | VTEDLRLKYWEHSIALRNISLAKG | 2.69
39 | VTEDLRLKWWEHSIALRNISLAKG | 2.22
40 | VTEDLRLKKWEHSIALRNISLAKG | 2.82
41 | VTEDLRLKPWEHSIALRNISLAKG | 3.37
42 | VTEDLRLKGWEHSIALRNISLAKG | 2.29
43 | VTEDLRLKIWEHSIALRNISLAKG | 2.27
44 | VTEDLRLKNWEHSIALRNISLAKG | 3.12
45 | VTEDLRLKHWEHSIALRNISLAKG | 2.71
46 | VTEDLRLKAWEHSIALRNISLAKG | 2.94
47 | VTEDLRLKSWEHSIALRNISLAKG | 3.17
48 | VTEDLRLKFWEHSIALRNISLAKG | 2.44

Row | Variant | protein stability index
49 | VTEDLRLKEWEHSIALRNISLAKG | 3.17
50 | VTEDLRLKRWEHSIALRNISLAKG | 3.14
51 | VTEDLRLKLWEHSIALRNISLAKG | 2.64
52 | VTEDLRLKVWEHSIALRNISLAKG | 3.01
53 | VTEDLRLKMWEHSIALRNISLAKG | 1.96
54 | VTEDLRLKQWEHSIALRNISLAKG | 3.31
55 | VTEDLRLKDWEHSRALRNISLAKG | 3.64
56 | VTEDLRLKDWEHSQALRNISLAKG | 3.91
57 | VTEDLRLKDWEHSGALRNISLAKG | 4.17
58 | VTEDLRLKDWEHSVALRNISLAKG | 3.75
59 | VTEDLRLKDWEHSTALRNISLAKG | 3.59
60 | VTEDLRLKDWEHSFALRNISLAKG | 3.21
61 | VTEDLRLKDWEHSEALRNISLAKG | 4.03
62 | VTEDLRLKDWEHSHALRNISLAKG | 3.47
63 | VTEDLRLKDWEHSNALRNISLAKG | 3.96
64 | VTEDLRLKDWEHSPALRNISLAKG | 4.76
65 | VTEDLRLKDWEHSKALRNISLAKG | 3.86
66 | VTEDLRLKDWEHSLALRNISLAKG | 3.3
67 | VTEDLRLKDWEHSAALRNISLAKG | 4.04
68 | VTEDLRLKDWEHSMALRNISLAKG | 3.4
69 | VTEDLRLKDWEHSYALRNISLAKG | 3.37
70 | VTEDLRLKDWEHSCALRNISLAKG | 3.26
71 | VTEDLRLKDWEHSDALRNISLAKG | 4.26
72 | VTEDLRLKDWEHSSALRNISLAKG | 4.22

Row | Variant | protein stability index
73 | VTEDLRLKDWEHSWALRNISLAKG | 3.29
74 | VTEDLRLKDWEHNIALRNISLAKG | 2.93
75 | VTEDLRLKDWEHGIALRNISLAKG | 3.01
76 | VTEDLRLKDWEHQIALRNISLAKG | 3.68
77 | VTEDLRLKDWEHKIALRNISLAKG | 3.23
78 | VTEDLRLKDWEHDIALRNISLAKG | 3.65
79 | VTEDLRLKDWEHEIALRNISLAKG | 3.58
80 | VTEDLRLKDWEHLIALRNISLAKG | 2.93
81 | VTEDLRLKDWEHIIALRNISLAKG | 2.85
82 | VTEDLRLKDWEHAIALRNISLAKG | 3.37
83 | VTEDLRLKDWEHYIALRNISLAKG | 2.88
84 | VTEDLRLKDWEHWIALRNISLAKG | 2.57
85 | VTEDLRLKDWEHPIALRNISLAKG | 3.25
86 | VTEDLRLKDWEHTIALRNISLAKG | 3.41
87 | VTEDLRLKDWEHVIALRNISLAKG | 3.37
88 | VTEDLRLKDWEHMIALRNISLAKG | 2.81
89 | VTEDLRLKDWEHRIALRNISLAKG | 3.4
90 | VTEDLRLKDWEHFIALRNISLAKG | 2.64
91 | VTEDLRLKDWEHCIALRNISLAKG | 3.08
92 | VTEDLRLKDWEHHIALRNISLAKG | 3.1
93 | VTEDLRLKDWEHSIALRAISLAKG | 2.25
94 | VTEDLRLKDWRHSIALRNISLAKG | 2.91
